Results from the supplement of paper PMC7125110.
± gives the standard error. Variants at the floor of the assay were thinned out.

B1: glmS ribozyme (parent)
chain: AUAAAAGCGCCAGAACUACAGAAAUGUAGUUGACGAGGAGGAGGUUUAUCGAAUUUUCGGCGGAUGCCUCCAAA

What was measured:
Conditions in all cases: with glucosamine-6-phosphate
[1] = variants of: B1; assay: self-cleavage kobs at 40 uM GlcN6P; higher = faster cleavage; RNA array
In short: (§1)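 Barcoded ribozyme variants were transcribed in situ on sequenced MiSeq chips by E. coli RNA polymerase. At 37 °C, a hybridised Cy3 probe tracked them while glucosamine-6-phosphate (40 μM to 10 mM) in HEPES/KCl/Mg(OAc)2 buffer flowed in and tiles were imaged over ~14 h. Per-tile medians of signals normalised to baseline and to non-cleaving reference variants were fit to one- or two-exponential decays, giving kobs. kcat and KM came from weighted Michaelis–Menten fits across concentrations.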

[2] = variants of: B1; assay: self-cleavage kobs at 160 uM GlcN6P; higher = faster cleavage; RNA array
In short: as §1

[3] = variants of: B1; assay: self-cleavage kobs at 640 uM GlcN6P; higher = faster cleavage; RNA array
In short: as §1

[4] = variants of: B1; assay: self-cleavage kobs at 2500 uM GlcN6P; higher = faster cleavage; RNA array
In short: as §1

[5] = variants of: B1; assay: self-cleavage kobs at 10000 uM GlcN6P; higher = faster cleavage; RNA array
In short: as §1

Variant | self-cleavage kobs at 40 uM GlcN6P [1] [s⁻¹] | self-cleavage kobs at 160 uM GlcN6P [2] [s⁻¹] | self-cleavage kobs at 640 uM GlcN6P [3] [s⁻¹] | self-cleavage kobs at 2500 uM GlcN6P [4] [s⁻¹] | self-cleavage kobs at 10000 uM GlcN6P [5] [s⁻¹]
A33U G59U G62A | < 1e-05 | – | – | – | –
G37C A52U A53U | < 1e-05 | – | – | – | –
G38U C70G | 2.71e-05 ± 1e-05 | 0.000289 ± 9.3e-05 | 0.000298 ± 0.00014 | – | –
U31C A48U C50A A53C U65G G66A | < 1e-05 | – | – | < 1e-05 | < 1e-05
U31C C34G G37A A42U U47A A52U | < 1e-05 | – | – | – | < 1e-05
G35A G41A A48G C61U | < 1e-05 | – | – | – | –
A36C G41C U69A | < 1e-05 | – | – | – | –
G35C U56G | < 1e-05 | < 1e-05 | < 1e-05 | < 1e-05 | < 1e-05
G35C U56C | < 1e-05 | < 1e-05 | < 1e-05 | < 1e-05 | < 1e-05
A36G C50G | 3.66e-05 ± 1.5e-05 | – | – | – | –
G37A C61U | < 1e-05 | – | < 1e-05 | < 1e-05 | –
G32C U45G U65A | < 1e-05 | – | < 1e-05 | – | < 1e-05
A33C C71U | < 1e-05 | < 1e-05 | – | – | 4.08e-05 ± 1e-05
G35A U54G C68G | 0.000144 ± 5.9e-05 | – | – | – | –
G38U A64C | < 1e-05 | < 1e-05 | – | < 1e-05 | < 1e-05
G38U A64G | < 1e-05 | – | – | < 1e-05 | –
G37C G44U U46G C71G | < 1e-05 | – | – | – | –
G35A U45A C71A | < 1e-05 | – | – | – | –
G38U U56G C61A C68G | 0.000276 ± 7.7e-05 | – | – | – | 6.19e-05 ± 2.1e-05
A36C A39C C58U C61A C71A | < 1e-05 | – | – | – | –
A36C G59U C68G | < 1e-05 | – | – | – | –
G38U G60A | < 1e-05 | – | – | – | –
U31C C50G C70U | 7.5e-05 ± 2.8e-05 | 7.9e-05 ± 1.5e-05 | 7.86e-05 ± 1.6e-05 | 4.19e-05 ± 1.2e-05 | 4.29e-05 ± 1.3e-05
G37U G38A A42C | < 1e-05 | – | < 1e-05 | < 1e-05 | < 1e-05
C34A U45A | < 1e-05 | < 1e-05 | < 1e-05 | < 1e-05 | –

Variant | self-cleavage kobs at 40 uM GlcN6P [1] [s⁻¹] | self-cleavage kobs at 160 uM GlcN6P [2] [s⁻¹] | self-cleavage kobs at 640 uM GlcN6P [3] [s⁻¹] | self-cleavage kobs at 2500 uM GlcN6P [4] [s⁻¹] | self-cleavage kobs at 10000 uM GlcN6P [5] [s⁻¹]
G32A A36C A42G C70G | < 1e-05 | – | – | – | < 1e-05
U30G G66A | 0.000144 ± 3.9e-05 | – | – | – | –
C34A U65A | < 1e-05 | – | – | < 1e-05 | < 1e-05
G32C C34U | < 1e-05 | < 1e-05 | < 1e-05 | < 1e-05 | < 1e-05
G32U C61G | < 1e-05 | – | < 1e-05 | – | –
U31G C71A | 0.000103 ± 1.4e-05 | 0.000505 ± 0.00012 | 0.000376 ± 8.1e-05 | 0.000715 ± 0.00018 | 0.00392 ± 0.00068
G35C G41U G63U | < 1e-05 | – | – | – | –
G38U U45G C67U | < 1e-05 | – | – | – | < 1e-05
G35U U45A G63C C71G | < 1e-05 | – | – | < 1e-05 | < 1e-05
A36C G37U G51U | < 1e-05 | – | – | – | –
G35C A42G U49A G66C | < 1e-05 | – | – | < 1e-05 | < 1e-05
G35C U49C | < 1e-05 | – | < 1e-05 | – | –
G37U G41C | < 1e-05 | < 1e-05 | < 1e-05 | < 1e-05 | –
C34G G37U G38C U47G U56C | < 1e-05 | – | – | – | < 1e-05
G35U G63U | < 1e-05 | < 1e-05 | < 1e-05 | < 1e-05 | < 1e-05
G32A G35C C67G | < 1e-05 | – | – | – | < 1e-05
G32C U49C | < 1e-05 | < 1e-05 | – | – | –
G32C U49A | < 1e-05 | < 1e-05 | < 1e-05 | – | < 1e-05
A36C G66A | < 1e-05 | – | – | – | < 1e-05
C34G U45G C70A | < 1e-05 | < 1e-05 | – | < 1e-05 | < 1e-05
G38U G66C | < 1e-05 | – | < 1e-05 | – | –
C34G G41A G44U A53U | < 1e-05 | – | – | – | < 1e-05
A36U G51A | < 1e-05 | < 1e-05 | – | – | < 1e-05
C34A C50G C71U | 6.66e-05 ± 3e-05 | 0.000155 ± 6.7e-05 | 0.000408 ± 0.0001 | 0.000247 ± 0.00012 | 6.4e-05 ± 2.5e-05
